Results published in doi:10.1101/2021.07.08.451529v1.

B1: recombinant MDH-1 (Caenorhabditis elegans) (protein)
chain: MSAPLRVLVTGAAGQIGYSIVIRIADGTVFGKEQPVELVLLDVPQCSNILEGVVFELQDCALPTLFSVVAVTDEKSAFTGIDYAFLVGAMPRREGMERKDLLAANVKIFKSQGKALAEYAKPTTKVIVVGNPANTNAFIAAKYAAGKIPAKNFSAMTRLDHNRALAQLALKTGTTIGNVKNVIIWGNHSGTQFPDVTHATVNKNGTETDAYAAVGDNAFLQGPFIATVQKRGGVIIEKRKLSSAMSAAKAACDHIHDWHFGTKAGQFVSMAVPSDGSYGIPQGLIFSFPVTIEGGEWKIVQGLSFDDFAKGKIAATTKELEEERDDALKACDDANI
B2: endogenous MDH-1 (Caenorhabditis elegans) (protein)
chain: MSAPLRVLVTGAAGQIGYSIVIRIADGTVFGKEQPVELVLLDVPQCSNILEGVVFELQDCALPTLFSVVAVTDEKSAFTGIDYAFLVGAMPRREGMERKDLLAANVKIFKSQGKALAEYAKPTTKVIVVGNPANTNAFIAAKYAAGKIPAKNFSAMTRLDHNRALAQLALKTGTTIGNVKNVIIWGNHSGTQFPDVTHATVNKNGTETDAYAAVGDNAFLQGPFIATVQKRGGVIIEKRKLSSAMSAAKAACDHIHDWHFGTKAGQFVSMAVPSDGSYGIPQGLIFSFPVTIEGGEWKIVQGLSFDDFAKGKIAATTKELEEERDDALKACDDANI
B3: recombinant MDH-2 (Caenorhabditis elegans) (protein)
chain: SQAPKVALLGAAGGIGQPLGLLLKQDPLVAHLALYDVVNTPGVAADLSHIDSNAKVTAHTGPKELYAAVENADVIVIPAGVPRKPGMTRDDLFNTNAGIVRDLAAVIAKASPKALIAIITNPVNSTVPIASEVLKKAGVYDPKRVFGVTTLDVVRSQAFVSELKGHDASKTVVPVVGGHAGITIIPLLSQVKPSTKFSEEEISKLTPRIQDAGTEVVNAKAGAGSATLSMALAGARFANALVRGIKGEKNVQCAYVASDAVKGVEYFSTPVELGPNGVEKILGVGKVSAYEQKLIDASVPELNKNIAKGVAFVKGN
B4: endogenous MDH-2 (Caenorhabditis elegans) (protein)
chain: SQAPKVALLGAAGGIGQPLGLLLKQDPLVAHLALYDVVNTPGVAADLSHIDSNAKVTAHTGPKELYAAVENADVIVIPAGVPRKPGMTRDDLFNTNAGIVRDLAAVIAKASPKALIAIITNPVNSTVPIASEVLKKAGVYDPKRVFGVTTLDVVRSQAFVSELKGHDASKTVVPVVGGHAGITIIPLLSQVKPSTKFSEEEISKLTPRIQDAGTEVVNAKAGAGSATLSMALAGARFANALVRGIKGEKNVQCAYVASDAVKGVEYFSTPVELGPNGVEKILGVGKVSAYEQKLIDASVPELNKNIAKGVAFVKGN

How the values were obtained:
[1] = substrate: NC(=O)C1=CN([C@@H]2O[C@H](COP(=O)(O)OP(=O)(O)OC[C@H]3O[C@@H](n4cnc5c(N)ncnc54)[C@H](O)[C@@H]3O)[C@@H](O)[C@H]2O)C=CC1; assay: purified protein; conditions: 150 μM oxaloacetate, 0.1 M phosphate pH 7.5, 0.1 M KCl, 24 °C
[2] = substrate: O=C(O)CC(=O)C(=O)O; assay: purified protein; conditions: 100 μM NADH, 0.1 M phosphate pH 7.5, 0.1 M KCl, 24 °C

Row | Protein | Km [1] | Km [2]
1 | B1 | 61 ± 6 µM | 54 ± 4 µM
2 | B2 |  | 50 ± 4 µM
3 | B3 |  | 52 ± 4 µM
4 | B4 |  | 42 ± 2 µM
